Experimental data: FireProtDB (doi:10.1002/pro.5560030904)
Where “and” joins values, the source holds several entries; their conditions need not be identical. Equal values may be shown once.

Conditions: Oryctolagus cuniculus; pH 7.4; Thermal; DSC; sodium phosphate 10 mM; transition: 4; reversible: yes; whole UniProt chain shown

B1: Fructose-bisphosphate aldolase A wild type, P00883 (protein)
chain: MPHSHPALTPEQKKELSDIAHRIVAPGKGILAADESTGSIAKRLQSIGTENTEENRRFYRQLLLTADDRVNPCIGGVILFHETLYQKADDGRPFPQVIKSKGGVVGIKVDKGVVPLAGTNGETTTQGLDGLSERCAQYKKDGADFAKWRCVLKIGEHTPSALAIMENANVLARYASICQQNGIVPIVEPEILPDGDHDLKRCQYVTEKVLAAVYKALSDHHIYLEGTLLKPNMVTPGHACTQKYSHEEIAMATVTALRRTVPPAVTGVTFLSGGQSEEEASINLNAINKCPLLKPWALTFSYGRALQASALKAWGGKKENLKAAQEEYVKRALANSLACQGKYTPSGQAGAAASESLFISNHAY
  unfolding enthalpy (calorimetric): 61 kcal/mol and 34 kcal/mol
